Measurements taken from IntAct's records for PubMed 17959776.

B1: Nitrogen regulatory protein P-II (Synechococcus elongatus (strain PCC 7942)), P0A3F4 (parent)
chain: MKKIEAIIRPFKLDEVKIALVNAGIVGMTVSEVRGFGRQKGQTERYRGSEYTVEFLQKLKLEIVVEDAQVDTVIDKIVAAARTGEIGDGKIFVSPVDQTIRIRTGEKNADAI
partner: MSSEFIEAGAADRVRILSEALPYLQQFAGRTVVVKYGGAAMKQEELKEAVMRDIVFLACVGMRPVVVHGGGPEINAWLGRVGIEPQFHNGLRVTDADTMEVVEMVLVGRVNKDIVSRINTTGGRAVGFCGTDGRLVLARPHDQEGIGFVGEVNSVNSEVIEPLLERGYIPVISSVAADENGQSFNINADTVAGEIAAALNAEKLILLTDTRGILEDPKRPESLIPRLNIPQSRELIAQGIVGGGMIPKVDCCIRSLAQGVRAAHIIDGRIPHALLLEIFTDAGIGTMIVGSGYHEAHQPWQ
B2: Acetylglutamate kinase (Synechococcus elongatus (strain PCC 7942)), Q6V1L5 (parent)
chain: B1 partner

Variants of: B1
Conditions: with argb_syne7 argB, Q6V1L5

Row | Variant | effect of a mutation on the interaction
1 | S49E | disrupting interaction strength
2 | S49A | disrupting interaction strength
3 | S49D | disrupting interaction strength
4 | E85A | disrupting interaction
5 | F11A | disrupting interaction
6 | R47A | disrupting interaction
7 | Y46A | disrupting interaction
8 | R45A | disrupting interaction

Variants of: B1
Conditions: with argb_syne7 argB

Row | Variant | effect of a mutation on the interaction
9 | S49D | disrupting interaction

Variants of: B2
Conditions: with glnb_syne7 glnB, P0A3F4

Row | Variant | effect of a mutation on the interaction
10 | MSSEFIEAGAADRVRILSEALPYLQQFAGRTVVVKYGGAAMKQEELKEAVMRDIVFLACVGMRPVVVHGGGPEINAWLGRVGIEPQFHNGLRVTDADTMEVVEMVLVGRVNKDIVSRINTTGGRAVGFCGTDGRLVLARPHDQEGIGFVGEVNSVNSEVIEPLLERGYIPVISSVAADENGQSFNINADTVAGEIAAALNAEKLILLTDTRGILEDPKRPESLIPRLNIPQSAELIAQGIVGGGMIPKVDCCIRSLAQGVRAAHIIDGRIPHALLLEIFTDAGIGTMIVGSGYHEAHQPWQ [R233A] | disrupting interaction
11 | MSSEFIEAGAADRVRILSEALPYLQQFAGRTVVVKYGGAAMKQEELKEAVMRDIVFLACVGMRPVVVHGGGPEINAWLGRVGIEPQFHNGLRVTDADTMEVVEMVLVGRVNKDIVSRINTTGGRAVGFCGTDGRLVLARPHDQEGIGFVGEVNSVNSEVIEPLLERGYIPVISSVAADENGQSFNINADTVAGEIAAALNAEKLILLTDTRGILEDPKRPESLIPRLNAPQSRELIAQGIVGGGMIPKVDCCIRSLAQGVRAAHIIDGRIPHALLLEIFTDAGIGTMIVGSGYHEAHQPWQ [I229A] | disrupting interaction
12 | MSSEFIEAGAADRVRILSEALPYLQQFAGRTVVVKYGGAAMKQEELKEAVMRDIVFLACVGMRPVVVHGGGPEINAWLGRVGIEPQFHNGLRVTDADTMEVVEMVLVGRVNKDIVSRINTTGGRAVGFCGTDGRLVLAAPHDQEGIGFVGEVNSVNSEVIEPLLERGYIPVISSVAADENGQSFNINADTVAGEIAAALNAEKLILLTDTRGILEDPKRPESLIPRLNIPQSRELIAQGIVGGGMIPKVDCCIRSLAQGVRAAHIIDGRIPHALLLEIFTDAGIGTMIVGSGYHEAHQPWQ [R139A] | disrupting interaction
13 | MSSEFIEAGAADRVRILSEALPYLQQFAGRTVVVKYGGAAMKQEELKEAVMRDIVFLACVGMRPVVVHGGGPEINAWLGRVGIEPQFHNGLRVTDADTMEVVEMVLVGRVNKDIVSRINTTGGRAVGFCGTDGRLVLARPHDQEGIGFVGEVNSVNSEVIEPLLERGYIPVISSVAADENGQSFNINADTVAGEIAAALNAEKLILLTDTRGILEDPKRPESLIPRLNIPQSRELIAQGIVGGGMIPKVDCCIASLAQGVRAAHIIDGRIPHALLLEIFTDAGIGTMIVGSGYHEAHQPWQ [R254A] | disrupting interaction
14 | MSSEFIEAGAADRVRILSEALPYLQQFAGRTVVVKYGGAAMKQEELKEAVMRDIVFLACVGMRPVVVHGGGPEINAWLGRVGIEPQFHNGLRVTDADTMEVVEMVLVGRVNKDIVSRINTTGGRAVGFCGTDGRLVLARPHDQEGIGFVGEVNSVNSEVIEPLLERGYIPVISSVAADENGQSFNINADTVAGEIAAALNAEKLILLTDTRGILEDPKRPESLIPRLNIPQSRELIAQGIVGGGMIPKVDCCIRSAAQGVRAAHIIDGRIPHALLLEIFTDAGIGTMIVGSGYHEAHQPWQ [L256A] | disrupting interaction
15 | MSSEFIEAGAADRVRILSEALPYLQQFAGRTVVVKYGGAAMKQEELKEAVMRDIVFLACVGMRPVVVHGGGPEINAWLGRVGIEPQFHNGLRVTDADTMEVVEMVLVGRVNKDIVSRINTTGGRAVGFCGTDGRLVLARPHDQEGIGFVGEVNSVNSEVIEPLLERGYIPVISSVAADENGQSFNINADTVAGEIAAALNAEKLILLTDTRGILEDPKRPESLIPRLNIPQSRELIAQGIVGGGMIPKVDCCIRSLAAGVRAAHIIDGRIPHALLLEIFTDAGIGTMIVGSGYHEAHQPWQ [Q258A] | disrupting interaction
